The supplement of paper PMC10126150
± gives the standard deviation of the averaged measurements.

Tested on: ATP
Test: switch fluorescence ratio, 500 uM ATP over buffer (Cy3 cluster intensity, sum of 5 cycles each) (fold (ratio)); higher = stronger signal-on switching upon ATP binding; sequences stand for … in TCGTCGGCAGCGTCAGATGTGTATAAGAGACAGTTTTTTTTTTTTTTTTTTTTTTTTT…TC
Conditions: aptamer strand: ATP DNA aptamer (quencher-CACCTGGGGGAGTATTGCGGAGGAAGG + anchor), 100 nM annealed; ATP concentration: 500 uM
Method in brief: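 Imaging in selection buffer was followed by imaging after 15 min with 500 uM ATP at 22 °C, for Cy3-labelled switching-strand clusters annealed to 100 nM quencher-labelled ATP aptamer on a modified Illumina MiSeq flow-cell. Five of these buffer/ATP cycles ran, separated by NaOH stripping and re-annealing. The fluorescence ratio per cluster is summed target-cycle over summed buffer-cycle Cy3 intensity, averaged per switch-domain sequence; clusters outside 100-1000 RFU were removed.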
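Further: ATP exposure 15 min at 22 °C before imaging.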

Sequence | switch fluorescence ratio
TGCGATTATG | 1.02 ± 0.041
TGCGATTTGT | 1.04 ± 0.043
TGCGCAATTT | 1.205 ± 0.0054
TGCGCCTCAG | 1.08 ± 0.074
TGCGGCCGGG | 1.01 ± 0.012
TGCGGCGACG | 0.993 ± 0.015
TGCGGCTGGG | 0.978 ± 0.019
TGCGGCTTCG | 0.913 ± 0.061
TGCGGGCTAG | 1.01 ± 0.015
TGCGGGGTAC | 1.25 ± 0.045
TGCGGGGTCA | 1.02 ± 0.034
TGCGGGTAAT | 0.9985 ± 0.0046
TGCGGGTGGG | 1.03 ± 0.026
TGCGGGTTAG | 0.984 ± 0.032
TGCGGTCCTG | 1 ± 0.017
TGCGGTCGCG | 0.959 ± 0.012
TGCGGTGTGC | 1.04 ± 0.017
TGCGTAGGGT | 0.967 ± 0.011
TGCGTAGTTA | 0.987 ± 0.012
TGCGTCAAAT | 0.999 ± 0.024
TGCGTCCCAA | 1.34 ± 0.021
TGCGTCGGCG | 1 ± 0.013
TGCGTGAAGT | 1.041 ± 0.0091
TGCGTTGGTG | 1.006 ± 0.0061
TGCTAAAGGT | 0.9836 ± 0.0095

Sequence | switch fluorescence ratio
TGCTACAGGA | 1.02 ± 0.0049
TGCTACTGC | 1.03 ± 0.015
TGCTAGAAGT | 0.9792 ± 0.003
TGCTATAAAG | 0.988 ± 0.043
TGCTATAATG | 1.02 ± 0.021
TGCTATATTA | 0.99152 ± 0.00065
TGCTCAATGA | 0.9737 ± 0.0075
TGCTGAGTTT | 1.01 ± 0.05
TGCTGCCTAC | 2.38 ± 1.6
TGCTGCGGTG | 0.993 ± 0.0084
TGCTGGAAGT | 0.977 ± 0.032
TGCTGGACTT | 0.987 ± 0.015
TGCTGGATT | 0.983 ± 0.025
TGCTGGATTA | 1.01 ± 0.031
TGCTGGCCGG | 0.98 ± 0.022
TGCTGGCTGG | 0.973 ± 0.0016
TGCTGGGGAA | 1.01 ± 0.028
TGCTGGGTAT | 0.9954 ± 0.0031
TGCTGGGTCC | 1.02 ± 0.02
TGCTGGGTTT | 0.998 ± 0.011
TGCTGTTGGC | 0.928 ± 0.025
TGCTTCATGT | 0.985 ± 0.027
TGCTTGTATT | 1.01 ± 0.027
TGCTTGTTAG | 0.989 ± 0.07
TGCTTTAAAG | 1 ± 0.037

Sequence | switch fluorescence ratio
TGCTTTAGGG | 0.965 ± 0.029
TGGAAAAGGG | 1.032 ± 0.0082
TGGAACCGGA | 1.02 ± 0.011
TGGAACTTAT | 0.997 ± 0.056
TGGAAGAAAT | 1.02 ± 0.011
TGGAAGAGGG | 1 ± 0.018
TGGAAGGGG | 1.02 ± 0.015
TGGAAGGTT | 0.987 ± 0.019
TGGAATTAAC | 1.02 ± 0.042
TGGAATTACT | 1.26 ± 0.36
TGGAATTTGG | 1 ± 0.038
TGGACAAATT | 1.02 ± 0.022
TGGACATGTG | 1.05 ± 0.1
TGGACCGGTC | 0.996 ± 0.01
TGGACGGGGC | 1.034 ± 0.0099
TGGAGAAAGT | 1.03 ± 0.067
TGGAGAGGGG | 0.996 ± 0.05
TGGAGAGTGT | 0.963 ± 0.036
TGGAGGGGCT | 0.987 ± 0.046
TGGAGGTCCG | 1.06 ± 0.023
TGGAGTAACT | 1.0876 ± 0.00087
TGGAGTCCGG | 0.987 ± 0.036
TGGAGTTTAA | 1 ± 0.026
TGGATAGAGT | 0.985 ± 0.02
TGGATAGGCA | 0.986 ± 0.012

Sequence | switch fluorescence ratio
TGGATAGGTA | 0.995 ± 0.023
TGGATATGAC | 1 ± 0.015
TGGATCAAGT | 1.01 ± 0.06
TGGATGATAT | 0.9913 ± 0.008
TGGATGTCTG | 0.978 ± 0.044
TGGATTAAGT | 1.02 ± 0.042
TGGATTATGT | 1.005 ± 0.0045
TGGATTGGGT | 1 ± 0.046
TGGCACAGTG | 0.996 ± 0.019
TGGCACGCGG | 0.986 ± 0.019
TGGCACGTAT | 1.09 ± 0.03
TGGCAGAAGG | 1.06 ± 0.076
TGGCAGTAAA | 1.02 ± 0.039
TGGCATATTT | 1.05 ± 0.051
TGGCATTGGT | 0.983 ± 0.014
TGGCCGACTT | 1.02 ± 0.02
TGGCCGCTTT | 1.03 ± 0.03
TGGCCGGAAT | 1.04 ± 0.03
TGGCCTAACT | 1.02 ± 0.042
TGGCCTTCGT | 1.13 ± 0.049
TGGCGAGAGG | 1 ± 0.022
TGGCGATTGG | 0.985 ± 0.023
TGGCGGATTT | 0.998 ± 0.031
TGGCGGGGAC | 1.1 ± 0.17
TGGCGGGGGC | 1.02 ± 0.011
